Results on four compounds are retold here after paper PMC7496416 (Molecular microbiology, 2020).

For one data set, the target named is T1, NasR (His10-MBP-NasR) (Klebsiella oxytoca, UniProt Q48468).
T1 sequence (Q48468 1-396): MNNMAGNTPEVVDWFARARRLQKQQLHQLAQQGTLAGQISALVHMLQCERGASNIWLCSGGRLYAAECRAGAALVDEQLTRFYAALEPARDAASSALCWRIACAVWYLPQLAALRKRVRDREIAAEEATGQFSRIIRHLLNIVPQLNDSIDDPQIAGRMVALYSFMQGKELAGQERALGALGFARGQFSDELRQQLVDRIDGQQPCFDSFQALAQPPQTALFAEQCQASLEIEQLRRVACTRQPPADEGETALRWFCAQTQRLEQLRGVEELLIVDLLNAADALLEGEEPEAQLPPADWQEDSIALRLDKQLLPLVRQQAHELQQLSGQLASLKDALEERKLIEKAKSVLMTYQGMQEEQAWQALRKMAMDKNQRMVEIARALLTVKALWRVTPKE
The experiment in a line: fluorescence anisotropy of Cy3-labelled P1P2 nasF leader RNA, ion titration. The class given is biochemical. The note with it: 8 uM protein; 50 mM HEPES pH 7.5, 100 mM KCl, 1 mM MgCl2; allosteric activator, NIT domain.

For data set [1], the system named is NasR wild type (Klebsiella oxytoca). Kind of data set: fluorescence anisotropy. The note with it: 50 mM HEPES pH 7.5, 100 mM KCl, 1 mM MgCl2, with or without 1 mM KNO3; 50 nM Cy3-RNA final; 30 min in the dark, temperature not stated; Hill fit. (In general: In fluorescence polarisation assays a small probe gives low polarisation when free and higher when bound to something large.)

In data set [2] the test system is NasR K347R (Klebsiella oxytoca). Kind of data set: fluorescence anisotropy. As to conditions: 50 mM HEPES pH 7.5, 100 mM KCl, 1 mM MgCl2, with or without 1 mM KNO3; 50 nM Cy3-RNA final; 30 min in the dark, temperature not stated; Hill fit.
The subject of data set [3] is NasR R340K (Klebsiella oxytoca). The experiment in a line: fluorescence anisotropy. The note with it: 50 mM HEPES pH 7.5, 100 mM KCl, 1 mM MgCl2, with or without 1 mM KNO3; 50 nM Cy3-RNA final; 30 min in the dark, temperature not stated; Hill fit.

On to `O=NO` [nitrite], for which, on NasR (His10-MBP-NasR), the “activation of RNA binding (Hill fit)” value is reported as “RNA binding activity was only observed in conditions containing nitrate or nitrite”.

Turning to P2 single-hairpin RNA, the Kd in data set [1] stood at 12 µM.

Turning to `O=[N+]([O-])O` [nitrate], the “activation of RNA binding (Hill fit)” value on NasR (His10-MBP-NasR) is listed as “RNA binding activity was only observed in conditions containing nitrate or nitrite”.

Turning to P1P2 two-hairpin RNA, the binding signal (fold weaker than wild type) in data set [2] and in data set [3] was 10 throughout. Moreover, the Kd in data set [1] was 1 µM.

For orientation: Kd means the equilibrium constant for the complex coming apart. A higher Kd goes with lower affinity.
